Consider 1 substance from US20250163168A1, “NOVEL ANTIBODIES AND ANTIBODY CONJUGATES FOR THE TREATMENT OF METABOLIC DISORDERS” (PFIZER INC., priority 2023, published 2025).

The subject of experiment [1] is diet induced obese (DIO) male hGIPR mice. Put plainly: Oral glucose tolerance test (OGTT) in DIO male hGIPR mice. In kind it is in vivo, mouse. The note with it: single dose 1 mpk, versus IgG (FIG. 5B). An excerpt:
To test the efficacy of anti-GIPR antibodies GIPR-0107 and GIPR-2767 in vivo, humanized mice expressing hGIPR were made in which human GIPR is expressed under the control of the endogenous mouse Gipr locus while knocking out the mouse Gipr gene. Human GIPR cDNA-SV40 pA was inserted in-frame with mouse Gipr at the end of exon 2 (1st coding exon) utilizing CRISPR/Cas9 technology. Insertion of human GIPR cDNA and disruption of mouse Gipr was validated by genotyping, and human GIPR mRNA expression was confirmed by quantitative PCR. These hGIPR mice were used to measure the in vivo efficacy of GIPR-0107 and GIPR-2767 using oral glucose tolerance test (OGTT) and weight gain prevention studies.
Mice were singly housed, maintained on a 12-hour light/12-hour dark cycle, and received food and wr ad libitum. Prior to the start of the study, mice were weighed and randomized into groups based on body weight. […] Before dosing, mice were bled vial tail snip to obtain a basal blood glucose reading by AlphaTRAK handheld glucometer, and at time 0, mice were dosed with 1.5 g/kg glucose by oral gavage. Blood glucose was measured by glucometer at 15 min, 30 min, 60 min, and 120 min after glucose administration. […] All residuals were evaluated for meeting the normality assumption with the Shapiro-Wilks Test and Q-Q Plots and the sphericity and homoscedasticity assumption by the residual plots and Bartlett's test. […]

The next experiment has as its target T1, mouse GIPR/GIP (Mus musculus, UniProt Q0P543).
T1 sequence (Q0P543 19-460): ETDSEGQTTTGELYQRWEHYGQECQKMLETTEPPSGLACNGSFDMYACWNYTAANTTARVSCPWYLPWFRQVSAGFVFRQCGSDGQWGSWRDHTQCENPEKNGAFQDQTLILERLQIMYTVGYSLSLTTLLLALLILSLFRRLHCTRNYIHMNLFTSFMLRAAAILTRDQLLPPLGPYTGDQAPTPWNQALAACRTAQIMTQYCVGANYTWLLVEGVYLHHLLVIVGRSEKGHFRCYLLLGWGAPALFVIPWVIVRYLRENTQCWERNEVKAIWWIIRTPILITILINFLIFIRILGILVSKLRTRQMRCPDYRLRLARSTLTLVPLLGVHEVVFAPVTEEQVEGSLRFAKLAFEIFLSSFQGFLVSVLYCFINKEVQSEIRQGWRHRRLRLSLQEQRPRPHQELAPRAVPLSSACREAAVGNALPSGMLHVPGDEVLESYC
Put plainly: Cross-species activity to mouse GIPR/GIP.

For the next experiment, the target named is T2, Human GIPR ECD (Homo sapiens, UniProt P48546).
T2 sequence (P48546 with tags, fused parts or gaps): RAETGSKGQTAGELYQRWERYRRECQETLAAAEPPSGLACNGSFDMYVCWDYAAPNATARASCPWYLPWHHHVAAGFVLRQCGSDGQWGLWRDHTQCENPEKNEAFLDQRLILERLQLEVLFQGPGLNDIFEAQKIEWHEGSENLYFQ
As to the kind of experiment: Kinetic evaluation of anti-GIPR antibody by surface plasmon resonance (SPR). More on the design: made in house. As to conditions: SPR at 37° C., captured antibody, 1:1 binding model. Here is the method:
Human GIPR ECD (amino acid sequence of SEQ ID NO: 33) was prepared. An anti-human Fc sensor chip was prepared by amine coupling of anti-human IgG antibody (catalog number BR-1008-39, Cytiva) to all flow cells of a carboxymethylated dextran coated sensor chip (CM5) (catalog number BR100530, Cytiva) according to the manufacturer's protocols. The flow cells were activated by injecting a 1:1 mixture of 400 mM 1-Ethyl-3-(3-dimethylaminopropyl) carbodiimide hydrochloride (EDC) and 100 mM N-hydroxysuccinimide (NHS) for 7 minutes at a flow rate of 10 μL/minute. Anti-human IgG antibody was diluted to ˜12.5 μg/mL in 10 mM sodium acetate pH 5.0 and injected over all flow cells for 7 minutes at 10 μL/minute. All flow cells were blocked with 1M ethanolamine-HCl (ETH) for 7 minutes at 10 μL/minute. Final immobilization levels of the capture antibody were approximately 12,000 resonance units (RU). […]
Flow cell 1 was used as a reference surface. […] Rate constants and affinities were determined by fitting the data to a 1:1 binding model in BIAcore™ Insight Evaluation software version 3.0.12 (GE Healthcare).
After antibody capture, dilutions of the human GIPR ECD proteins were flowed over the sensor chip surface and the association rate constant (ka), dissociation rate constant (kd), and KD values were determined for binding to human GIPR ECD (Table 5).
Background: SPR reads the build-up and loss of mass on a sensor chip optically.

A word on the Kd: it is the free concentration of one partner at which half of the binding sites on the other are occupied at equilibrium, for simple one-to-one binding. Regarding “2G10: fully human monoclonal anti-GIPR antagonist antibody portion of AMG 133 (maridebart cafraglutide); benchmark antibody [reference compound]”, in experiment [1], the “baseline glucose adjusted AUC in OGTT” value is recorded as “not significantly different than IgG”. Further, the “cross-reactivity to additional species such as mouse GIPR” value in the experiment with mouse GIPR/GIP is recorded as “not cross-reactive”. This substance showed a Kd with Human GIPR ECD of 19.2 nM.
